Assays:
Type in all cases: cell-based
[1] = target: T1, HMGB1 (Homo sapiens, UniProt P09429); test: Co-immunoprecipitation of HMGB1 with protein VII-HA in A549 cells; design: endogenous in cells; host or cells: A549; conditions: A549 cells induced 4 days
T1 sequence (P09429 1-215): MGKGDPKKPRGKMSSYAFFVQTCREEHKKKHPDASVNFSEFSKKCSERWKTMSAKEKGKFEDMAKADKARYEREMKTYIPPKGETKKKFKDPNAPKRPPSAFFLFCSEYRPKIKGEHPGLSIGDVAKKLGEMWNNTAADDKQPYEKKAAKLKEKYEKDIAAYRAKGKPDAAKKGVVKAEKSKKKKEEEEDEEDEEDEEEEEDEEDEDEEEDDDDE
Experimental: A549 cells were induced to express protein VII with doxycycline for four days as described above. Approximately 4×10^7 cells were harvested and pelleted for each immunoprecipitation reaction. Cell pellets were resuspended in 500 μl of IC wash buffer with protease inhibitors (20 mM HEPES pH 7.9, 110 mM KOAc, 2 mM MgCl2, 150 mM NaCl, 0.1% Tween-20, 0.1% Triton X) and incubated on ice for 10 minutes with intermittent vortexing to disrupt cells. Samples were then incubated on ice for 1 hour with 5 μl of benzonase (Millipore) added to each sample to digest DNA to ˜150 bp, which was confirmed by DNA isolation and agarose gel analysis. Samples were then sonicated in a Diagenode Bioruptre for 30 seconds on and 30 seconds off for five rounds at 4° C. and centrifuged at 14,000 g for 15 minutes at 4° C. Supernatants were then incubated rotating for 1 hour at 4° C. with 30 μl of HA-conjugated magnetic beads (Thermo Scientific) and washed three times for five minutes in IC buffer. Isolated proteins were eluted with 100 μl of 2 mg/ml HA peptide (Thermo Scientific) for 20 minutes rotating at 37° C. and separated on and SDS-PAGE gel. For protein separation by SDS-PAGE the NuPAGE IDE System was used (NuPAGE Novex 4-12% bis-tris 1.0 mm gels, Invitrogen, USA). Uninduced cells were used as a negative control. […]

[2] = target: T2, HMGB2 (Homo sapiens, UniProt P26583); test: Release assay of HMGB2 in THP-1 cells; conditions: PMA-treated THP-1 cells, LPS plus nigericin
T2 construct: endogenous in cells; host or cells: THP-1 (PMA-differentiated)
T2 sequence (P26583 1-209): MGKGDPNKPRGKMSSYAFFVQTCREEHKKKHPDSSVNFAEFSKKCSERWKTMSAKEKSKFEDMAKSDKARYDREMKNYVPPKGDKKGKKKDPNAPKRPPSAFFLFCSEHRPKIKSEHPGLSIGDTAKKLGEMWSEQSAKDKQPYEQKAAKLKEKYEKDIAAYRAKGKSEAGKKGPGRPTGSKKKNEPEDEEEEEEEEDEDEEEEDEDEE
Experimental: THP-1 cells were seeded at a density of 2×10^5 cells per well in a 24-well plate, and stimulated into macrophage-like cells by addition of 10 ng/mL PMA for 48 hours. Cells were washed in PBS and transduced with recombinant adenovirus vectors expressing only GFP or protein VII-GFP such that >90% of cells were GFP positive. At 48 hours post transduction, cells were washed and 200 μL of serum free RPMI was added. To stimulate the inflammasome, LPS (Sigma-Aldrich L2880) with a final concentration of 0.5 μg/mL was added to wells and incubated for 2 hours, then nigericin (Sigma-Aldrich N7143) was added with a final concentration of 10 μM for 1 hour. Supernatants were collected and proteins precipitated overnight at 4° C. with a final concentration of 20% trichloroacetic acid (Sigma), washed with acetone, dried, and resuspended in 1×sample buffer with reducing agent (Invitrogen). For ELISA analysis, supernatants were harvested directly and HMGB1 content was detected by the manufacturer's instructions (Chondrex 6010). Cells were also harvested by the addition of 1×sample buffer with reducing agent (Invitrogen) and boiled. Supernatants and lysates were analyzed together by western blot.

[3] = target: T1, HMGB1; test: Fluorescence recovery after photobleaching (FRAP) of HMGB1-mGFP
Experimental: Full-length HMGB1 was cloned from pcDNA3.1 Flag-hHMGB1 (Addgene 31609) into pEGFP-N1 containing a L221K mutation to prevent dimerization of GFP molecules (Zacharias et al. (2002) Science 296:913-916). A549 cells were induced to express protein VII for four days with doxycycline in glass-bottom dishes. Cells were then transfected with the construct that constitutively expresses HMGB1 with a monomeric GFP C-terminal tag. FRAP was carried out using standard methods on a Zeiss LSM confocal microscope. Diffusion coefficients were calculated using the “simFRAP” algorithm (imagej.nih.gov/ij/plugins/simfrap/index.html), a simulation based approach to FRAP analysis (Blumenthal et al. (2015) Sci. Rep., 5:11655).

B1: protein VII: mature protein VII of human adenovirus type 5 (SEQ ID NO:1), expressed in cells, mostly with C-terminal HA tag (protein)
chain: AKKRSDQHPVRVRGHYRAPWGAHKRGRTGRTTVDDAIDAVVEEARNYTPTPPPVSTVDAAIQTVVRGARRYAKMKRRRRRVARRHRRRPGTAAQRAAAALLNRARRTGRRAAMRAARRLAAGIVTVPPRSRRRAAAAAAAAISAMTQGRRGNVYWVRDSVSGLRVPVRTRPPRN
modifications: C-terminal HA tag; Human adenovirus 5
HMGB1 co-immunoprecipitation with protein VII [1]: confirmed | HMGB2 in supernatants [2]: reduced levels | HMGB1 mobility by FRAP ([3]; A549 cells expressing protein VII, HMGB1-mGFP): decreased HMGB1 diffusion | Fluorescence recovery after photo-bleaching of full-length HMGB1 and HMGB1 A box ([3]; upon expression of protein VII): dramatically delayed
